Each block holds one binder with its values, some of them ahead of it. Numbered stars: 1 amine (or outer) side, 2 acyl side, 3 side chain; on linkers, the order of the positions; unused ones are H or OH. Bridge positions count the residues as written; N and C are the ends. Side chains are listed from the residue outwards. Ends that are not written are not given here. * marks the point of attachment. C20 diacid = O=C(O)CCCCCCCCCCCCCCCCCCC(=O)*; γGlu = O=C(O)[C@H](CCC(=O)[*:2])N[*:1]; AEEA = NCCOCCOCC(=O)O
What was measured:
[1] = biological target: T1, human calcitonin receptor (human, UniProt P30988 25-474); assay: ratio IC50 hCTR / IC50 hAmylin-R (reference: human amylin receptor), SPA competition assays
T1 construct: whole, on cells; Assay used cell membranes, not intact cells; also called hCTR; hCT
T1 sequence (looked up): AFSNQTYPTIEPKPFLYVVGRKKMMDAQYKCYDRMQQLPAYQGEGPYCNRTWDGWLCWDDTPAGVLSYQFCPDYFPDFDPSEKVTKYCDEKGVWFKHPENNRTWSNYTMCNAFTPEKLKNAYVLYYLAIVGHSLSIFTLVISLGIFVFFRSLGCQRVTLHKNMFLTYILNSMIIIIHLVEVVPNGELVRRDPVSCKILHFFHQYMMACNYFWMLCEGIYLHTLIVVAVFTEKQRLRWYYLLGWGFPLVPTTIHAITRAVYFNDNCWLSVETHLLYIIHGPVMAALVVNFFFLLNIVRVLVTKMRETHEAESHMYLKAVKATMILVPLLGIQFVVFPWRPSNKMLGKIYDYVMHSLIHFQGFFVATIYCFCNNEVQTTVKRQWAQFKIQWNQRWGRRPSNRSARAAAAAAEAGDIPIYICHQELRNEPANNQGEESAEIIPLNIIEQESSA
Method: The resulting pellet was resuspended, homogenized and centrifuged (20.000 rpm, 15 min) in a buffer containing 20 mM Na-HEPES and 0.1 mM EDTA (pH 7.4, buffer 2). The resulting pellet was resuspended in buffer 2 and protein concentration was measured (BCA protein Assay, Pierce). The homogenate was kept cold during the whole procedure. The membranes were kept at −80° C. until use. The assay was performed in a 384 well Optiplate (PerkinElmer) in a total volume of 40 ul. Membranes were mixed with SPA beads. Final concentration of membranes 35 ng/μL final and SPA beads was 0.05 mg/well. Test-compounds were dissolved in DMSO and further diluted in assay buffer (50 mM Hepes, pH 7.4, 1 mM CaCl2, 5 mM MgCl₂, 0.1% OA and 0.02% Tween20). […] The final mixture was incubated with shaking at 400 rpm for 120 min at 25° C. prior to centrifugation (1500 rpm, 10 min). Samples were analyzed on TopCounter™ (Packard). The IC₅₀ was calculated using (one site binding competition analysis) GraphPad Prism5 as a measure of receptor affinity.
Membranes were prepared in the following way; the cells were rinsed with PBS and incubated with Versene for approximately 5 min before harvesting. The cells were flushed with PBS and the cell-suspension was centrifuged for 5 min at 1000 rpm. Cells were homogenized (Ultrathurrax) in a buffer containing 20 mM Na-HEPES and 10 mM EDTA (pH 7.4) and centrifuged at 20.000 rpm for 15 min. The resulting pellet was resuspended, homogenized and centrifuged (20.000 rpm, 15 min) in a buffer containing 20 mM Na-HEPES and 0.1 mM EDTA (pH 7.4, buffer 2). The resulting pellet was resuspended in buffer 2 and protein concentration was measured (BCA protein Assay, Pierce). The homogenate was kept cold during the whole procedure. The membranes were kept at −80° C. until use. Assay was performed in a 384 well Optiplate (PerkinElmer) in a total volume of 40 ul. Membranes were mixed with SPA beads.

[2] = biological target: T1, human calcitonin receptor; assay: SPA competition with 125I-calcitonin on membranes of BHK cells with human calcitonin receptor (Assay VII)
Method: Membranes were prepared in the following way; the cells were rinsed with PBS and incubated with Versene for approximately 5 min before harvesting. The cells were flushed with PBS and the cell-suspension was centrifuged for 5 min at 1000 rpm. Cells were homogenized (Ultrathurrax) in a buffer containing 20 mM Na-HEPES and 10 mM EDTA (pH 7.4) and centrifuged at 20.000 rpm for 15 min. The resulting pellet was resuspended, homogenized and centrifuged (20.000 rpm, 15 min) in a buffer containing 20 mM Na-HEPES and 0.1 mM EDTA (pH 7.4, buffer 2). The resulting pellet was resuspended in buffer 2 and protein concentration was measured (BCA protein Assay, Pierce). The homogenate was kept cold during the whole procedure. The membranes were kept at −80° C. until use. Assay was performed in a 384 well Optiplate (PerkinElmer) in a total volume of 40 ul. Membranes were mixed with SPA beads. Final concentration of membranes 35 ng/μL final and Final concentration of SPA beads was 0.05 mg/well. Test-compounds were dissolved in DMSO and further diluted in assay buffer (50 mM Hepes, pH 7.4, 1 mM CaCl2, 5 mM MgCl₂, 0.1% OA and 0.02% Tween20). […] The final mixture was incubated for 120 min with shaking at 400 rpm at 25° C. prior to centrifugation (1500 rpm, 10 min). Samples were analyzed on TopCounter™ (Packard). The […] was calculated using (one site binding competition analysis) GraphPad Prism5 as a measure of receptor affinity.

[3] = biological target: T2, human amylin receptor (amylin 3(a) receptor: human calcitonin receptor with RAMP-3) (human, UniProt P30988 25-474; O60896 24-148); assay: SPA competition with 125I-rat amylin on membranes of BHK cells with human calcitonin receptor and RAMP-3 (Assay V)
T2 construct: whole, on cells; Assay used cell membranes of the Amylin 3(a)/CRE-luc BHK cells, not intact cells; also called hAmylin-R; hAmylinR
T2 sequence (looked up) 1: T1 sequence (looked up)
T2 sequence (looked up) 2: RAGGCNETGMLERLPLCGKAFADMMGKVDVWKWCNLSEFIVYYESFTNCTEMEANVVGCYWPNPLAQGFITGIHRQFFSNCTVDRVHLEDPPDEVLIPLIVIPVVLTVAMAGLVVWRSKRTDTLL
Method: The binding assay was performed using scintillation proximity assay (SPA) beads (RPNQ0001) from PerkinElmer and cell membranes from the Amylin 3(a)/CRE-luc cells (as described in Assay (II)) were used. Membranes were prepared in the following way; the cells were rinsed with PBS and incubated with Versene for approximately 5 min before harvesting. The cells were flushed with PBS and the cell-suspension was centrifuged for 5 min at 1000 rpm. Cells were homogenized (ultrathurrax) in a buffer containing 20 mM Na-HEPES and 10 mM EDTA (pH 7.4) and centrifuged at 20.000 rpm for 15 min. The resulting pellet was resuspended, homogenized and centrifuged (20.000 rpm, 15 min) in a buffer containing 20 mM Na-HEPES and 0.1 mM EDTA (pH 7.4, buffer 2). The resulting pellet was resuspended in buffer 2 and protein concentration was measured (BCA protein Assay, Pierce). The homogenate was kept cold during the whole procedure. The membranes were kept at −80° C. until use. The assay was performed in a 384 well Optiplate (PerkinElmer) in a total volume of 40 ul. Membranes were mixed with SPA beads. Final concentration of membranes 35 ng/μL final and SPA beads was 0.05 mg/well. Test-compounds were dissolved in DMSO and further diluted in assay buffer (50 mM Hepes, pH 7.4, 1 mM CaCl2, 5 mM MgCl₂, 0.1% OA and 0.02% Tween20). […] The final mixture was incubated with shaking at 400 rpm for 120 min at 25° C. prior to centrifugation (1500 rpm, 10 min). Samples were analyzed on TopCounter™ (Packard). The IC₅₀ was calculated using (one site binding competition analysis) GraphPad Prism5 as a measure of receptor affinity.

Ratio hCT/hAmylin binding [1]: 79.6
IC50 [2]: 13.2 nM
IC50 [3]: 0.166 nM
B1: N^ε1-[2-[2-[2-[[2-[2-[2-[[(4S)-4-carboxy-4-(19-carboxynonadecanoylamino)butanoyl]amino]ethoxy]ethoxy]acetyl]amino]ethoxy]ethoxy]acetyl]-[Arg17,Pro21,Pro27,Pro31 … (peptide)
peptide: K([AEEA-AEEA-γGlu-C20 diacid])CNTATCATQRLANFLRHSSPNFGAIPSSTPVGSNTY-NH2
modifications: disulfide 2-7; N-terminus assumed
SMILES: CC[C@H](C)[C@H](NC(=O)[C@H](C)NC(=O)CNC(=O)[C@H](Cc1ccccc1)NC(=O)[C@H](CC(N)=O)NC(=O)[C@@H]1CCCN1C(=O)[C@H](CO)NC(=O)[C@H](CO)NC(=O)[C@H](Cc1c[nH]cn1)NC(=O)[C@H](CCCNC(=N)N)NC(=O)[C@H](CC(C)C)NC(=O)[C@H](Cc1ccccc1)NC(=O)[C@H](CC(N)=O)NC(=O)[C@H](C)NC(=O)[C@H](CC(C)C)NC(=O)[C@H](CCCNC(=N)N)NC(=O)[C@H](CCC(N)=O)NC(=O)[C@@H](NC(=O)[C@H](C)NC(=O)[C@@H]1CSSC[C@H](NC(=O)[C@@H](N)CCCCNC(=O)COCCOCCNC(=O)COCCOCCNC(=O)CC[C@H](NC(=O)CCCCCCCCCCCCCCCCCCC(=O)O)C(=O)O)C(=O)N[C@@H](CC(N)=O)C(=O)N[C@@H]([C@@H](C)O)C(=O)N[C@@H](C)C(=O)N[C@@H]([C@@H](C)O)C(=O)N1)[C@@H](C)O)C(=O)N1CCC[C@H]1C(=O)N[C@@H](CO)C(=O)N[C@@H](CO)C(=O)N[C@H](C(=O)N1CCC[C@H]1C(=O)N[C@H](C(=O)NCC(=O)N[C@@H](CO)C(=O)N[C@@H](CC(N)=O)C(=O)N[C@H](C(=O)N[C@@H](Cc1ccc(O)cc1)C(N)=O)[C@@H](C)O)C(C)C)[C@@H](C)O
notes: also called compound 96

Ratio hCT/hAmylin binding [1]: 140
IC50 [2]: 88.8 nM
IC50 [3]: 0.636 nM
B2: N^ε1-[2-[2-[2-[[(4S)-4-carboxy-4-(19-carboxynonadecanoylamino)butanoyl]amino]ethoxy]ethoxy]acetyl]-[Arg14,Arg17,Pro21,Pro27]-h-amylin (peptide)
peptide: K([AEEA-γGlu-C20 diacid])CNTATCATQRLARFLRHSSPNFGAIPSSTNVGSNTY-NH2
modifications: disulfide 2-7; N-terminus assumed
SMILES: CC[C@H](C)[C@H](NC(=O)[C@H](C)NC(=O)CNC(=O)[C@H](Cc1ccccc1)NC(=O)[C@H](CC(N)=O)NC(=O)[C@@H]1CCCN1C(=O)[C@H](CO)NC(=O)[C@H](CO)NC(=O)[C@H](Cc1c[nH]cn1)NC(=O)[C@H](CCCNC(=N)N)NC(=O)[C@H](CC(C)C)NC(=O)[C@H](Cc1ccccc1)NC(=O)[C@H](CCCNC(=N)N)NC(=O)[C@H](C)NC(=O)[C@H](CC(C)C)NC(=O)[C@H](CCCNC(=N)N)NC(=O)[C@H](CCC(N)=O)NC(=O)[C@@H](NC(=O)[C@H](C)NC(=O)[C@@H]1CSSC[C@H](NC(=O)[C@@H](N)CCCCNC(=O)COCCOCCNC(=O)CC[C@H](NC(=O)CCCCCCCCCCCCCCCCCCC(=O)O)C(=O)O)C(=O)N[C@@H](CC(N)=O)C(=O)N[C@@H]([C@@H](C)O)C(=O)N[C@@H](C)C(=O)N[C@@H]([C@@H](C)O)C(=O)N1)[C@@H](C)O)C(=O)N1CCC[C@H]1C(=O)N[C@@H](CO)C(=O)N[C@@H](CO)C(=O)N[C@H](C(=O)N[C@@H](CC(N)=O)C(=O)N[C@H](C(=O)NCC(=O)N[C@@H](CO)C(=O)N[C@@H](CC(N)=O)C(=O)N[C@H](C(=O)N[C@@H](Cc1ccc(O)cc1)C(N)=O)[C@@H](C)O)C(C)C)[C@@H](C)O
notes: also called compound 82

— patent US20140087995A1 (published 2014)
